Assay results from patent US20250122303A1 (HUMMINGBIRD BIOSCIENCE PTE, published 2025).
Read-outs that look alike come from different tables or passages of the source. Blank lines part the entries; values can stand above or below the binder they belong to.

Assays:
[1] = target: T1, cynomolgus macaque HER3 (cynomolgus macaque, UniProt G7PIG5 20-643); assay: ELISA, plate coated with 0.1 ug/ml cynomolgus HER3, antibody titrated, absorbance 450 nm
T1 construct: also called monkey homologue of HER3 (Sino Biological Inc.); HER3 cyno
T1 sequence (G7PIG5 entry or part of it): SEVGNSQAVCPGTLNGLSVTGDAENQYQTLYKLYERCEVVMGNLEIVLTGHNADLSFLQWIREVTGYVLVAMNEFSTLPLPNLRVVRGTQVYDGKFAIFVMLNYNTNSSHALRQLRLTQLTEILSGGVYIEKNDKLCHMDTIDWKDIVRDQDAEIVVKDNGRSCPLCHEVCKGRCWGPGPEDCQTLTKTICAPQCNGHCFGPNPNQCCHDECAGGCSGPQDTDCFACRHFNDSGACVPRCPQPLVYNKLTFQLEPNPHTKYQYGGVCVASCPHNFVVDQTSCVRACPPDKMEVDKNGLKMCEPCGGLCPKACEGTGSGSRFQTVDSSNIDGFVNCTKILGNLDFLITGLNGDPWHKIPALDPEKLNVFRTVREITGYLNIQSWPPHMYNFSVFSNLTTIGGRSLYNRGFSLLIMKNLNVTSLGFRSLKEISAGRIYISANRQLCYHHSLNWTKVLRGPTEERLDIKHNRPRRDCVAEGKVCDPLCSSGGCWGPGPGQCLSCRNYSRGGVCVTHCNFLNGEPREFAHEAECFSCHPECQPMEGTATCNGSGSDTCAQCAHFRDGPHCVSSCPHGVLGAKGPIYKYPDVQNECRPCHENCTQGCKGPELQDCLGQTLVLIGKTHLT
Experimental: (§1) ELISAs were used to determine the binding specificity of the antibodies. The antibodies were analysed for binding to human HER3 polypeptide, as well as respective mouse, rat and monkey homologues of HER3 (Sino Biological Inc., China). The antibodies were also analysed for their ability to bind to human EGFR and human HER2 (Sino Biological Inc., China).
(§2) ELISAs were carried out according to standard protocols. Briefly, 96-well plates (Nunc, Denmark) were coated with 0.1 μg/ml of target polypeptide in phosphate-buffered saline (PBS) for 16 h at 4° C. After blocking for 1 h with 1% BSA in Tris buffer saline (TBS) at room temperature, the anti-HER3 antibody was serially diluted with the highest concentration being 10 μg/ml, and added to the plate. Post 1 h incubation at room temperature, plates were washed three times with TBS containing 0.05% Tween 20 (TBS-T) and were then incubated with a HRP-conjugated […] antibody (Life Technologies, Inc., USA) for 1 h at room temperature. After washing, plates were developed with colorimetric detection substrate 3,3′,5,5′-tetramethylbenzidine (Turbo-TMB; Pierce, USA) for 10 min. The reaction was stopped with 2M H₂SO₄, and OD was measured at 450 nm.

[2] = target: T2, mouse HER3 (mouse, UniProt Q61526 20-641); assay: ELISA, plate coated with 0.1 ug/ml mouse HER3, antibody titrated, absorbance 450 nm
T2 construct: also called mouse homologue of HER3 (Sino Biological Inc.); M. musculus HER3
T2 sequence (Q61526 20-641 limits assumed): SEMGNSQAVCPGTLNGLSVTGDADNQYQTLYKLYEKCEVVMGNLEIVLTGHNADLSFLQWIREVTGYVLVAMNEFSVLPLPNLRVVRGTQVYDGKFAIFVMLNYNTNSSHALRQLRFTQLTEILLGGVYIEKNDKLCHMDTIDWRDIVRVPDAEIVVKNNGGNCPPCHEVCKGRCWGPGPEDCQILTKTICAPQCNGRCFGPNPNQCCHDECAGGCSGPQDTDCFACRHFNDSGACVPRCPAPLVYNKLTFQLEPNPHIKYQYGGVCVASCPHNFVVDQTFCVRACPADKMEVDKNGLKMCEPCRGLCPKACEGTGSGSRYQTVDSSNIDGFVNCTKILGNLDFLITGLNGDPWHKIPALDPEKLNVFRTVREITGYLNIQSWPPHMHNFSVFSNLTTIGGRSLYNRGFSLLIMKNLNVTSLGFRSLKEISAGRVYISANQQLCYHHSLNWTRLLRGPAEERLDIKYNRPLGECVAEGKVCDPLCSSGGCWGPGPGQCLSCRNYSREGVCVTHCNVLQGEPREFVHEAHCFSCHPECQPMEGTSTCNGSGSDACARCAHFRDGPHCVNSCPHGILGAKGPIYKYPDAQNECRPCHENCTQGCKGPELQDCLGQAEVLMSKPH
Experimental: as §1, §2

[3] = target: T3, rat HER3 (rat, UniProt Q62799 20-641, limits assumed); assay: ELISA, plate coated with 0.1 ug/ml rat HER3, antibody titrated, absorbance 450 nm
T3 construct: also called rat homologue of HER3 (Sino Biological Inc.); R. norvegicus HER3
T3 sequence (Q62799 20-641 limits assumed): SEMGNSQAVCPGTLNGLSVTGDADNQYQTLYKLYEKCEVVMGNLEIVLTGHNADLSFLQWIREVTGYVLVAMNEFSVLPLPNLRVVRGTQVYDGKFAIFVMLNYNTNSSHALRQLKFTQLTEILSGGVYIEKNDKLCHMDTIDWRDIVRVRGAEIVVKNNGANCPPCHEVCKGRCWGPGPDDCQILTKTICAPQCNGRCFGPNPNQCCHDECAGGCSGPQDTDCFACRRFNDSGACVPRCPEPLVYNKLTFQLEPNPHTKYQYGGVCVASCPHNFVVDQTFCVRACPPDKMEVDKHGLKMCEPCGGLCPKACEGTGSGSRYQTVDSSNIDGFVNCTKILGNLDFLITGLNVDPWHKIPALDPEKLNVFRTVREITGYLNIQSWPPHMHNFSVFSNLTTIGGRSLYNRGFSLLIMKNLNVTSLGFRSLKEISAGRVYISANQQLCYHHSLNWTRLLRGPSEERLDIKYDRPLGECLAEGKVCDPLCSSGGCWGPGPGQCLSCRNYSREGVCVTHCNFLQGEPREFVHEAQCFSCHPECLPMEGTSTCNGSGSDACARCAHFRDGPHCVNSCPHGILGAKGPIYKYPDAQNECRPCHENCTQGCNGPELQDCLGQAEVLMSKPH
Experimental: as §1, §2

[4] = target: T4, human EGFR (human, UniProt P00533 25-645); assay: ELISA, plate coated with 0.1 ug/ml human EGFR, antibody titrated, absorbance 450 nm
T4 construct: also called human HER1 (EGFR) (Sino Biological Inc.)
Experimental: as §1, §2

[5] = target: T5, human HER3 expressed on cells (HEK293 HER3 O/E cells) (human, UniProt P21860 20-1342); assay: flow cytometry on HEK293T HER3 O/E cells, 10 ug antibody as printed, FITC-conjugated anti-Fc secondary
T5 construct: Also used here for HER3 on U2OS cells of the PathHunter kit and on cancer cell lines; also called HEK293 cells transfected with vector encoding human HER3; human HER3-expressing cells
Experimental: The cells were washed with buffer (PBS with 2 mM EDTA and 0.5% BSA) and resuspended in FITC-conjugated anti-FC antibody (Invitrogen, USA) at 10 μg/ml for 20 min at 4° C. Cells were washed again and resuspended in 200 μL of FACS flow buffer (PBS with 5 mM EDTA) for flow cytometric analysis using MACSQuant 10 (Miltenyi Biotec, Germany). Unstained WT and transfected HEK293 cells were included in the analysis as negative controls. After acquisition, all raw data were analyzed using Flowlogic software. Cells were gated using forward and side scatter profile percentage of positive cells was determined for native and overexpressing cell populations.

[6] = target: T6, human HER3 polypeptide (human, UniProt P21860 20-643); assay: ELISA, plate coated with 0.1 ug/ml human HER3, antibody titrated, absorbance 450 nm
T6 construct: Recombinant antigen of the ELISAs; also called human HER3 (Sino Biological Inc.); human antigen HER3
Experimental: as §1, §2

[7] = target: T7, His-tagged human HER3 (human, UniProt P21860 20-643); assay: BLI (Octet QK384), antibody on anti-human IgG capture tips, His-tagged human HER3 in solution, global 1:1 fit, R^2 = 0.9898, kon Error 8.22E+03; Response 0.0794 / 0.1744 / 0.3278 / 0.5079 at 35 / 69 / 139 / 278 nM
T7 construct: Antigen of the BLI experiments and of the HER2-Fc dimerisation ELISA; also called HER3 His; not shown: His tag
Experimental: (§3) The anti-HER3 antibody clones in IgG1 format were analysed for binding affinity to human HER3. Bio-Layer Interferometry (BLI) experiments were performed using the Octet QK384 system (ForteBio). anti-Human IgG Capture (AHC) Octet sensor tips (Pall ForteBio, USA) were used to anti-HER3 antibodies (25 nM). All measurements were performed at 25° C. with agitation at 1000 rpm. […] Sensograms were referenced for buffer effects and then fitted using the Octet QK384 user software (Pall ForteBio, USA). Kinetic responses were subjected to a global fitting using a one site binding model to obtain values for association (Kₒₙ), dissociation (Koff) rate constants and the equilibrium dissociation constant (KD). Only curves that could be reliably fitted with the software (R²>0.90) were included in the analysis.

[8] = target: T6, human HER3 polypeptide; assay: ELISA, plate coated with 0.1 ug/ml human HER3, antibody titrated, absorbance 450 nm; remark: listed apart in the source
Experimental: as §1, §2

[9] = target: T5, human HER3 expressed on cells (HEK293 …); assay: flow cytometry, HEK293 cells overexpressing human HER3, 20 ug/ml antibody, FITC anti-Fc secondary; same antibody on WT HEK293: 0.60
Experimental: (§4) The cells were washed thrice with FACS buffer (PBS with 5 mM EDTA and 0.5% BSA) and resuspended in FITC-conjugated anti-FC antibody (Invitrogen, USA) for 40 min at 2-8° C. Cells were washed again and resuspended in 200 μL of FACS flow buffer (PBS with 5 mM EDTA) for flow cytometric analysis using MACSQuant 10 (Miltenyi Biotec, Germany). After acquisition, all raw data were analyzed using Flowlogic software. Cells were gated using forward and side scatter profile percentage of positive cells was determined for native and overexpressing cell populations.

[10] = target: T8, His-tagged FcγRIIIa (V158) (human, UniProt P08637 17-208); assay: Bio-Layer Interferometry; His-tagged FcγRIIIa (V158) on anti-Penta-HIS tips, antibody in solution
T8 construct: not shown: His tag
Experimental: All measurements were performed at 25° C. with agitation at 1000 rpm. […] Sensograms were referenced for buffer effects and then fitted using the Octet QK384 user software (Pall ForteBio, USA). Kinetic responses were subjected to a global fitting using a one site binding model to obtain values for association (Kₒₙ), dissociation (Koff) rate constants and the equilibrium dissociation constant (KD). Only curves that could be reliably fitted with the software (R²>0.90) were included in the analysis.
BLI was performed as described above.

[11] = target: T9, human HER2 (human, UniProt P04626 23-652); assay: ELISA, plate coated with 0.1 ug/ml human HER2, antibody titrated, absorbance 450 nm
T9 construct: also called human HER2 (Sino Biological Inc.)
Experimental: as §1, §2

[12] = target: T7, His-tagged human HER3; assay: BLI (Octet QK384), antibody on anti-human IgG capture tips, His-tagged human HER3 35-278 nM, global 1:1 fit; kdis Error 1.56E-04
Experimental: as §3

[13] = target: T5, human HER3 expressed on cells (HEK293 …); assay: flow cytometry, HEK293 cells overexpressing human HER3, 20 ug/ml antibody, FITC anti-Fc secondary; same antibody on WT HEK293: 0.60; remark: listed apart in the source
Experimental: as §4

[14] = target: T7, His-tagged human HER3; assay: BLI (Octet QK384), antibody on anti-human IgG capture tips, His-tagged human HER3 in solution, global one-site fit
Experimental: as §3

[15] = target: T7, His-tagged human HER3; assay: BLI (Octet QK384), antibody on anti-human IgG capture tips, His-tagged human HER3 35-278 nM, global 1:1 fit
Experimental: as §3

[16] = target: T6, human HER3 polypeptide; assay: ELISA, plate coated with human HER3, antibody titrated, absorbance 450 nm, x axis Log([Ab]) (ug/ml)
[17] = target: T7, His-tagged human HER3; assay: BLI (Octet QK384), antibody on anti-human IgG capture tips, His-tagged human HER3 in solution, global 1:1 fit, R^2 = 0.9891, kon Error 1.04E+04; Response 0.1355 / 0.3221 / 0.4533 / 0.5944 at 35 / 39 (as printed in the table; graph label 69) / 139 / 278 nM
Experimental: as §3

[18] = target: T5, human HER3 expressed on cells (HEK293 …); assay: flow cytometry, HEK293 cells overexpressing human HER3 (293_OE HER3), 20 ug/ml antibody, FITC anti-Fc secondary; same antibody on 293 cells: 2.48; unstained 293: 0.14
Experimental: as §4

[19] = target: T7, His-tagged human HER3; assay: BLI (Octet QK384), antibody on anti-human IgG capture tips, His-tagged human HER3 35-278 nM, global 1:1 fit; kdis Error 1.11E-04
Experimental: as §3

[20] = target: T5, human HER3 expressed on cells (HEK293 …); assay: flow cytometry, HEK293 cells overexpressing human HER3 (293_OE HER3), 20 ug/ml antibody, FITC anti-Fc secondary; same antibody on 293 cells: 5.38; unstained 293: 0.14
Experimental: as §4

[21] = target: T7, His-tagged human HER3; assay: BLI (Octet QK384), antibody on anti-human IgG capture tips, His-tagged human HER3 in solution, global 1:1 fit, R^2 = 0.9917, kon Error 9.57E+03; Response 0.1296 / 0.2851 / 0.4098 / 0.5575 at 35 / 69 / 139 / 278 nM
Experimental: as §3

EC50 [1]: 0.00368 nM
EC50 [2]: 0.137 nM
EC50 [3]: 0.372 nM
binding result [4]: no binding (tested: log(M) about -6.7)
% Parent (HER3 positive) [5]: 65.7%
EC50 [6]: 0.00588 nM
kon [7]: 180000 M⁻¹ s⁻¹
EC50 [8]: 0.00588 nM
% Parent (HER3 positive) [9]: 99%
Kd [10]: 298 nM
koff [10]: 0.04 s⁻¹
kon [10]: 130000 M⁻¹ s⁻¹
binding result [11]: no binding (tested: log(M) about -6.7)
koff [12]: 0.00173 s⁻¹
% Parent (HER3 positive) [13]: 99%
Kd [14]: 9.58 nM
B1: anti-HER3 clone 10D1 IgG1 (antibody)
heavy: not shown
light: DIVMTQSQKFMSTSVGDRVSVTCKASQIVGSNVAWYQQKPGQSPKPLIYSASYRYSGVPDRFTASGSGTDFTLTITNVQSEDLAEYFCQQYSSHPLTFGAGTKLELKRTVAAPSVFIFPPSDEQLKSGTASVVCLLNNFYPREAKVQWKVDNALQSGNSQESVTEQDSKDSTYSLSSTLTLSKADYEKHKVYACEVTHQGLSSPVTKSFNRGEC
notes: Mouse variable regions on human IgG1/kappa constant regions (human-mouse chimeric antibody); also called 10D1P; 10D1 (parental)

koff [15]: < 1e-07 s⁻¹
EC50 (read off the curve) [16]: ~7 ng/mL
kon [17]: 252000 M⁻¹ s⁻¹
% Parent (HER3 positive) [18]: 41.8%
Kd [14]: < 0.001 nM
B2: anti-HER3 clone 10D1_c90 IgG1 (antibody, V domains shown)
VH: QVQLQESGPGLVKPSQTLFLTCTVSGYSITSGYSWHWIRQHPGKGLEWIGSIRYSGGTDYNPSLKSLVTISVDTSKNQFSLKLSSVTAADTAVYYCARMTTAPWYPFDYWGQGTTVTVSS
VL: DIQMTQSPSSVSASVGDRVTFTCKASQIVGSNVAWYQQKPGKAPEPLIYSASYLYSSVPSRFSGSGSGTEFTMTISSLEPEDFATYYCQQYTTHPLTFGPGTKVEIKR
notes: Humanised 10D1 variant, IgG1/kappa

koff [19]: 4.73e-05 s⁻¹
EC50 (read off the curve) [16]: ~5 ng/mL
% Parent (HER3 positive) [20]: 48%
Kd [14]: 0.176 nM
kon [21]: 269000 M⁻¹ s⁻¹
B3: anti-HER3 clone 10D1_c91 IgG1 (antibody, V domains shown)
VH: QVQLQESGPGLVKPSQTLSLTCTVSGYYITSGYSWHWIRQHPGKGLEWIGSIRYSGGTDYNPSLKSLATISADTSKNQFSLKLSSVTAADTAVYYCARMTTAPWYPFDYWGQGTAVTVSS
VL: DIQMTQSPSSVSASVGDRVTITCKASQIVGSNVAWYQQKPGKAPMPLIYSASYGYSGVPSRFSGSGSGTDFTLTISSLQPEDFATYYCQQYSSHPLTFGQGTKLEIKR
notes: as for B2
